{"source": "paper PMC8545111", "about": "“Molecular Basis of the Versatile Regulatory Mechanism of HtrA-Type Protease AlgW from Pseudomonas aeruginosa” (mBio, 2021)", "binders": {"B1": {"name": "decapeptide SVRDELRWVF (MucE C-terminal tail) (peptide)", "peptide": "SVRDELRWVF", "notes": "C-terminal decapeptide of the periplasmic protein MucE of Pseudomonas aeruginosa; also called C-terminal decapeptide of MucE"}}, "assay_in_all_cases": "cell-based or functional assay", "key": {"[1]": {"target": "T1, AlgW-K287A (Pseudomonas aeruginosa, UniProt Q9HVX1 30-389, K287A)", "T1 sequence": "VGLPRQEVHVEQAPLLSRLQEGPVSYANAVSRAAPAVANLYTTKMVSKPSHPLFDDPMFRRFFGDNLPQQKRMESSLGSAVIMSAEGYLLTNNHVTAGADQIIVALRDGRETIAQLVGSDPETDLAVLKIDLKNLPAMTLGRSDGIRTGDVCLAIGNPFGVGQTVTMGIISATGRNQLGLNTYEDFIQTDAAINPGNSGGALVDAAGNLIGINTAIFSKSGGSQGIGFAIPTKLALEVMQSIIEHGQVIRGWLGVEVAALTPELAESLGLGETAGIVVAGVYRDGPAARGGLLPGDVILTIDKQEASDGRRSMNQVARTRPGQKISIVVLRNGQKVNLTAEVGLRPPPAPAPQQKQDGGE"}, "[2]": {"target": "T2, AlgW-R374A (Pseudomonas aeruginosa, UniProt Q9HVX1 30-389, R374A)", "T2 sequence": "T1 sequence with A258K, R345A"}, "[3]": {"target": "T3, AlgW-R279A (Pseudomonas aeruginosa, UniProt Q9HVX1 30-389, R279A)", "T3 sequence": "T1 sequence with R250A, A258K"}, "[4]": {"target": "T4, soluble AlgW (residues 30 to 389, without the N-terminal transmembrane segments) (Pseudomonas aeruginosa, UniProt Q9HVX1 30-389)", "T4 sequence": "T1 sequence with A258K"}, "[5]": {"target": "T5, AlgW-W281A (Pseudomonas aeruginosa, UniProt Q9HVX1 30-389, W281A)", "T5 sequence": "T1 sequence with W252A, A258K"}, "[6]": {"target": "T6, AlgW-V284A (Pseudomonas aeruginosa, UniProt Q9HVX1 30-389, V284A)", "T6 sequence": "T1 sequence with V255A, A258K"}}, "note": "Where a chain is given by its changes, count along the chain named."}
{"binder": "B1", "values": [{"measurement": "half-maximal activation concentration of the peptide activator (cleavage of Abz-VLAG-pNA)", "setting": "[1]", "value": 6.53, "unit": "μM"}, {"measurement": "maximal cleavage activity of peptide-activated AlgW (Abz-VLAG-pNA)", "setting": "[1]", "value": 49.4, "unit": "μM min^−1"}, {"measurement": "maximal cleavage activity of peptide-activated AlgW (Abz-VLAG-pNA)", "setting": "[2]", "value": 5.45, "unit": "μM min^−1"}, {"measurement": "half-maximal activation concentration of the peptide activator (cleavage of Abz-VLAG-pNA)", "setting": "[3]", "value": 2.19, "unit": "μM"}, {"measurement": "half-maximal activation concentration of the peptide activator (cleavage of Abz-VLAG-pNA)", "setting": "[4]", "value": 2.02, "unit": "μM"}, {"measurement": "maximal cleavage activity of peptide-activated AlgW (Abz-VLAG-pNA)", "setting": "[4]", "value": 165, "unit": "μM min^−1"}, {"measurement": "half-maximal activation concentration of the peptide activator (cleavage of Abz-VLAG-pNA)", "setting": "[5]", "value": 1.51, "unit": "μM"}, {"measurement": "maximal cleavage activity of peptide-activated AlgW (Abz-VLAG-pNA)", "setting": "[5]", "value": 10.3, "unit": "μM min^−1"}, {"measurement": "half-maximal activation concentration of the peptide activator (cleavage of Abz-VLAG-pNA)", "setting": "[6]", "value": 3.56, "unit": "μM"}, {"measurement": "maximal cleavage activity of peptide-activated AlgW (Abz-VLAG-pNA)", "setting": "[6]", "value": 63.1, "unit": "μM min^−1"}]}
